Values of other authors in publication PMC3379994, “Comprehensive Analysis of Interactions between the Src-Associated Protein in Mitosis of 68 kDa and the Human Src-Homology 3 Proteome” (PLoS ONE, 2012).
pKd: −log10 of the molar value.

Target: Nef (Human immunodeficiency virus 1) (UniProt P04324)
Assay: SPR

Sequence of Hck SH3 (P08631 75-141): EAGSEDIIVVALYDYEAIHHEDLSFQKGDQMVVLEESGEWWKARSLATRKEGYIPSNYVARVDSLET

With Hck SH3 (from UniProt P08631) as the substance, how does the pKd read?
The pKd was 6.60.
